Assay results reported in the supplement of paper PMC9112550, “Optimization of the antimicrobial peptide Bac7 by deep mutational scanning” (BMC Biology, 2022).

Each sequence was assayed on Escherichia coli TOP10 (assay: shrunken log2 fold change of peptide-encoding DNA abundance (4.5 h post-induction vs induction); higher = less antimicrobial activity (less host growth inhibition)). Conditions: time post-induction: 4.5 h; library: site-saturation at positions 5, 18, 19, 20.
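Note: peptides expressed intracellularly from a pBAD plasmid library in pooled LB shake-flask culture, induced with 0.3% L-arabinose, DNA abundance read by NGS, three biological replicates, DESeq2 with apeglm shrinkage.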

| Sequence | shrunken log2 fold change |
| --- | --- |
| RRIRIRPPRLPRPRPRPMNGPRP | 0.00766 |
| RRIRNRPPRLPRPRPRPFLGPRP | -0.00194 |
| RRIRSRPPRLPRPRPRPASWPRP | 0.363 |
| RRIRLRPPRLPRPRPRPDEWPRP | -0.0118 |
| RRIRPRPPRLPRPRPRPDRNPRP | -0.0925 |
| RRIRQRPPRLPRPRPRPRSDPRP | -0.208 |
| RRIRARPPRLPRPRPRPHFEPRP | 0.703 |
| RRIRNRPPRLPRPRPRPACKPRP | 0.169 |
| RRIRLRPPRLPRPRPRPHNTPRP | -0.61 |
| RRIRIRPPRLPRPRPRPARLPRP | -0.0547 |
| RRIRNRPPRLPRPRPRPESDPRP | 0.648 |
| RRIRGRPPRLPRPRPRPRWKPRP | 0.0802 |
| RRIRLRPPRLPRPRPRPMSIPRP | -0.159 |
| RRIRMRPPRLPRPRPRPFHDPRP | -0.14 |
| RRIRPRPPRLPRPRPRPGVWPRP | 0.54 |
| RRIRCRPPRLPRPRPRPDTDPRP | -0.0352 |
| RRIRFRPPRLPRPRPRPFAGPRP | 0.0728 |
| RRIRLRPPRLPRPRPRPYPRPRP | -0.0678 |
| RRIRMRPPRLPRPRPRPVGGPRP | 0.961 |
| RRIRLRPPRLPRPRPRPHKFPRP | -0.138 |
| RRIRTRPPRLPRPRPRPCDWPRP | -0.0538 |
| RRIRGRPPRLPRPRPRPKTPPRP | 1.73 |
| RRIRRRPPRLPRPRPRPMWKPRP | -0.0119 |
| RRIRWRPPRLPRPRPRPAPHPRP | 0.491 |
| RRIRTRPPRLPRPRPRPMIWPRP | -0.0322 |

| Sequence | shrunken log2 fold change |
| --- | --- |
| RRIRWRPPRLPRPRPRPNIMPRP | -0.296 |
| RRIRVRPPRLPRPRPRPWKHPRP | -0.0202 |
| RRIRGRPPRLPRPRPRPCEWPRP | -0.01 |
| RRIRSRPPRLPRPRPRPSERPRP | 0.245 |
| RRIRPRPPRLPRPRPRPCTPPRP | -0.167 |
| RRIRMRPPRLPRPRPRPSINPRP | 0.0424 |
| RRIRSRPPRLPRPRPRPGGCPRP | 0.304 |
| RRIRDRPPRLPRPRPRPRAVPRP | 0.764 |
| RRIRCRPPRLPRPRPRPATPPRP | 1.34 |
| RRIRGRPPRLPRPRPRPHWYPRP | -0.0365 |
| RRIRYRPPRLPRPRPRPTKQPRP | 0.0156 |
| RRIRPRPPRLPRPRPRPYCFPRP | -0.655 |
| RRIRRRPPRLPRPRPRPGAHPRP | 0.45 |
| RRIRVRPPRLPRPRPRPEIPPRP | 0.054 |
| RRIRARPPRLPRPRPRPMCPPRP | 0.0408 |
| RRIRWRPPRLPRPRPRPFQKPRP | 0.0262 |
| RRIRERPPRLPRPRPRPECDPRP | 0.12 |
| RRIRERPPRLPRPRPRPDKNPRP | -0.383 |
| RRIRFRPPRLPRPRPRPIHSPRP | -0.895 |
| RRIRYRPPRLPRPRPRPWWQPRP | -0.00151 |
| RRIRRRPPRLPRPRPRPWWDPRP | -0.0777 |
| RRIRWRPPRLPRPRPRPPYAPRP | 0.426 |
| RRIRGRPPRLPRPRPRPRRDPRP | 0.424 |
| RRIRIRPPRLPRPRPRPKDCPRP | -0.0124 |
| RRIRARPPRLPRPRPRPDACPRP | 0.955 |

| Sequence | shrunken log2 fold change |
| --- | --- |
| RRIRERPPRLPRPRPRPYALPRP | -0.000856 |
| RRIRTRPPRLPRPRPRPMSCPRP | -0.181 |
| RRIRWRPPRLPRPRPRPCSKPRP | -0.0575 |
| RRIRIRPPRLPRPRPRPDLFPRP | -0.103 |
| RRIRYRPPRLPRPRPRPGTDPRP | -0.0254 |
| RRIRDRPPRLPRPRPRPYGDPRP | -0.0996 |
| RRIRHRPPRLPRPRPRPSEAPRP | -0.344 |
| RRIRWRPPRLPRPRPRPFARPRP | 0.188 |
| RRIRLRPPRLPRPRPRPMQPPRP | 0.303 |
| RRIRWRPPRLPRPRPRPYFLPRP | -0.757 |
| RRIRWRPPRLPRPRPRPIEKPRP | -0.221 |
| RRIRDRPPRLPRPRPRPKVWPRP | 0.437 |
| RRIRIRPPRLPRPRPRPPSYPRP | -0.336 |
| RRIRERPPRLPRPRPRPRSHPRP | -0.349 |
| RRIRWRPPRLPRPRPRPGWRPRP | 0.617 |
| RRIRARPPRLPRPRPRPCWWPRP | 0.157 |
| RRIRPRPPRLPRPRPRPTDLPRP | -0.0166 |
| RRIRVRPPRLPRPRPRPWWTPRP | -0.0418 |
| RRIRCRPPRLPRPRPRPSVHPRP | -0.575 |
| RRIRPRPPRLPRPRPRPLDYPRP | -0.495 |
| RRIRERPPRLPRPRPRPIFFPRP | 0.0602 |
| RRIRMRPPRLPRPRPRPQMPPRP | 0.0529 |
| RRIRTRPPRLPRPRPRPNQMPRP | -0.334 |
| RRIRDRPPRLPRPRPRPDLPPRP | 0.337 |
| RRIRCRPPRLPRPRPRPHYMPRP | -0.308 |
